The supplement of paper PMC10065799, “High-throughput profiling of sequence recognition by tyrosine kinases and SH2 domains using bacterial peptide display” (eLife, 2023)

What was measured:
Grb2 SH2 = Grb2 SH2 (UniProt P62993); assay: SH2 binding enrichment of the phosphorylated peptide, bacterial display (enrichment ratio); higher = better substrate or ligand; peptides without Tyr show the background
c-Src SH2 = assay: as above
SHP2-C SH2 = assay: as above
Hck = Hck (UniProt P08631); assay: phosphorylation enrichment, bacterial display (enrichment ratio); higher = better substrate or ligand; peptides without Tyr show the background
Fyn = Fyn (UniProt P06241); assay: as above
MERTK = MERTK (UniProt Q12866); assay: as above
EPHB2 = EPHB2 (UniProt P29323); assay: as above
c-Abl (mouse) = assay: as above
Fes = Fes (UniProt P07332); assay: as above
AncSZ = assay: as above
EPHB1 = EPHB1 (UniProt P54762); assay: as above
Fer (mouse) = assay: as above
FGFR1 = FGFR1 (UniProt P11362); assay: as above
FGFR3 = FGFR3 (UniProt P22607); assay: as above
c-Src = assay: as above
Jak2 = Jak2 (UniProt O60674); assay: as above
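Wherever SH2 binding enrichment of the phosphorylated peptide, bacterial display is given: peptide library displayed on the E. coli surface as eCPX fusions, selected cells deep-sequenced, score is each peptide's frequency after selection divided by its frequency in the input.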
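Wherever phosphorylation enrichment, bacterial display is given: 11-residue human phosphosite peptides and single-mutation variants displayed on the E. coli surface, counted by deep sequencing, each peptide's frequency after selection divided by its frequency in the unselected input library; frequency after pTyr selection over input frequency; kinase dosed for 20-30% of maximal phosphorylation in three min.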

Chain of EPHB2 (P29323 whole entry, looked up): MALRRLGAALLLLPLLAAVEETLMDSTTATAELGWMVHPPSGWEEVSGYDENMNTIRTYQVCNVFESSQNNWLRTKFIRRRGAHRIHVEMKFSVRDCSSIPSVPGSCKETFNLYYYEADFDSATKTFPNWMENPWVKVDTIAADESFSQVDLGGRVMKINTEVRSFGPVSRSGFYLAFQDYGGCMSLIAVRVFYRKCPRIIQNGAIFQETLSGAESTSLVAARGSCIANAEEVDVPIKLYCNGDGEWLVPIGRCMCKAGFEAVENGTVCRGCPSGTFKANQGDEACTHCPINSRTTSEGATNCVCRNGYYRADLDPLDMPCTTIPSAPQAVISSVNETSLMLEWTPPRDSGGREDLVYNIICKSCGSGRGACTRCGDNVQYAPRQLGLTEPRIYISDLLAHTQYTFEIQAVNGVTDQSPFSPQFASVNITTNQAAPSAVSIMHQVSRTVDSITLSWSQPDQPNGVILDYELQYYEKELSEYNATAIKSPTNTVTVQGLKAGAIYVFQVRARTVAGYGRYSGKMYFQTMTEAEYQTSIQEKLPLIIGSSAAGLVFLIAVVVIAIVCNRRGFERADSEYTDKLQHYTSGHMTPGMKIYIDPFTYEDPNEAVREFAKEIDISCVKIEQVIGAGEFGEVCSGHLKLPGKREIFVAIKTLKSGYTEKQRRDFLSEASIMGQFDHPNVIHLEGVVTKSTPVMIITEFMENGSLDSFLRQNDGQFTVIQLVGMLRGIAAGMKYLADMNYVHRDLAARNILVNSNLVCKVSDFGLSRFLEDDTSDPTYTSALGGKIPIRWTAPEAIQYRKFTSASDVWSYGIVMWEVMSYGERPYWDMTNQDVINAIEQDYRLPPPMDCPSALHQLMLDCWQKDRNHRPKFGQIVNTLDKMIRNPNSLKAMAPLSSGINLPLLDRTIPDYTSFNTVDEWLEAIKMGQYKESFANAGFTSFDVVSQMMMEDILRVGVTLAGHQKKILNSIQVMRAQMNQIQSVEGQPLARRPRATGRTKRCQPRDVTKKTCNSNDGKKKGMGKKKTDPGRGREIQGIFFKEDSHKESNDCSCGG
Chain of FGFR1 (P11362 whole entry, looked up): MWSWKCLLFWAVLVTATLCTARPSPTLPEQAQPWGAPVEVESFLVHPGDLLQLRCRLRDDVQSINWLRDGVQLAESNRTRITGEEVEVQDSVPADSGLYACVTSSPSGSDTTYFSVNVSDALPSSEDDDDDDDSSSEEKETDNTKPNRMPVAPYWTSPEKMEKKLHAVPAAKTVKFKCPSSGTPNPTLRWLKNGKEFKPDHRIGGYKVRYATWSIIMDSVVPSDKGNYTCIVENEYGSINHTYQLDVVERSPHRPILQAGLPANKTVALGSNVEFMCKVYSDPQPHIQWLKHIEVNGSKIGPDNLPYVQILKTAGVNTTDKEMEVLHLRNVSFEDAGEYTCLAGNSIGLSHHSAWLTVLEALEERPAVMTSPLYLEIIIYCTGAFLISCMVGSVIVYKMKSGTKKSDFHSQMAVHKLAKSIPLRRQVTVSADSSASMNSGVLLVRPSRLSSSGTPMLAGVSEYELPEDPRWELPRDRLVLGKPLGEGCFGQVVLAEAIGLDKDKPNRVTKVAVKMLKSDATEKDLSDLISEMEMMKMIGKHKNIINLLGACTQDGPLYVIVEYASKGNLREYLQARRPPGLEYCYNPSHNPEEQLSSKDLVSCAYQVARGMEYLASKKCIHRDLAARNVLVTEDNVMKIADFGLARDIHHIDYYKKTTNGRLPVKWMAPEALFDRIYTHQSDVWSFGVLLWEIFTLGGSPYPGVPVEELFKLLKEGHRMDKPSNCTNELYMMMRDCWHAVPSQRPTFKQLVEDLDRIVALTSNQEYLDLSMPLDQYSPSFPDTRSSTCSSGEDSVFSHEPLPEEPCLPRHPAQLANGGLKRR
Chain of EPHB1 (P54762 whole entry, looked up): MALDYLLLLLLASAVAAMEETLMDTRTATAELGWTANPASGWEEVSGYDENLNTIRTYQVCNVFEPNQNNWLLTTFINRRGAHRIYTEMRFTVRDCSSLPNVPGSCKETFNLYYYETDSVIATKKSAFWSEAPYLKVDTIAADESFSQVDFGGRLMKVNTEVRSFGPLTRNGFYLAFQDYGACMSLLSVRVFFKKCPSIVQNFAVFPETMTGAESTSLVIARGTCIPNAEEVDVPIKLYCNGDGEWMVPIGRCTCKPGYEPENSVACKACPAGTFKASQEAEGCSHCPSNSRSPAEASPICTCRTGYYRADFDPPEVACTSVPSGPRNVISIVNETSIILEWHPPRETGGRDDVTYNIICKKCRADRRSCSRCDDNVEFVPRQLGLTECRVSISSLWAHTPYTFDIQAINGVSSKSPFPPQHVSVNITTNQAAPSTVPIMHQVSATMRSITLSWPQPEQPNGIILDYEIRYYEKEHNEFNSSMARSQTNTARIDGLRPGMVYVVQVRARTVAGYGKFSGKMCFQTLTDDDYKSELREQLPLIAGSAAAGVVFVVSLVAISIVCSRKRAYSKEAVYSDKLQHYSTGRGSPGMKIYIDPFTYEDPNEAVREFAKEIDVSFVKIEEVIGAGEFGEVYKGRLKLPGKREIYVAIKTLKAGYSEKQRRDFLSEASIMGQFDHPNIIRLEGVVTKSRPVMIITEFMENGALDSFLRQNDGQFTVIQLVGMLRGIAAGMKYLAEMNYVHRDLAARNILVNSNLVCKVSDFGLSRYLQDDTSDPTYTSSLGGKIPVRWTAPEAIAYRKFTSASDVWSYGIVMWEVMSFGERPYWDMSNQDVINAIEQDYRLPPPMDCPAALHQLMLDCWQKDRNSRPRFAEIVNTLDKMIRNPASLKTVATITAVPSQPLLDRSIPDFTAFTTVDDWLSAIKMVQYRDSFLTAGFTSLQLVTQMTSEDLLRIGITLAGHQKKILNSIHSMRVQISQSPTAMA
Chain of Grb2 SH2 (P62993 whole entry, looked up): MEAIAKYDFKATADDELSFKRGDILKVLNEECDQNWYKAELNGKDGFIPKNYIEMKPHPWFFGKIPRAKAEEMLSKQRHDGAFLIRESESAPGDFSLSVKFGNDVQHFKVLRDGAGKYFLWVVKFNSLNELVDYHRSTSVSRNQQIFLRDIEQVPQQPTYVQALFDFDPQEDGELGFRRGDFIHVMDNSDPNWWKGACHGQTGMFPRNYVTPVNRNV
Chain of MERTK (Q12866 whole entry, looked up): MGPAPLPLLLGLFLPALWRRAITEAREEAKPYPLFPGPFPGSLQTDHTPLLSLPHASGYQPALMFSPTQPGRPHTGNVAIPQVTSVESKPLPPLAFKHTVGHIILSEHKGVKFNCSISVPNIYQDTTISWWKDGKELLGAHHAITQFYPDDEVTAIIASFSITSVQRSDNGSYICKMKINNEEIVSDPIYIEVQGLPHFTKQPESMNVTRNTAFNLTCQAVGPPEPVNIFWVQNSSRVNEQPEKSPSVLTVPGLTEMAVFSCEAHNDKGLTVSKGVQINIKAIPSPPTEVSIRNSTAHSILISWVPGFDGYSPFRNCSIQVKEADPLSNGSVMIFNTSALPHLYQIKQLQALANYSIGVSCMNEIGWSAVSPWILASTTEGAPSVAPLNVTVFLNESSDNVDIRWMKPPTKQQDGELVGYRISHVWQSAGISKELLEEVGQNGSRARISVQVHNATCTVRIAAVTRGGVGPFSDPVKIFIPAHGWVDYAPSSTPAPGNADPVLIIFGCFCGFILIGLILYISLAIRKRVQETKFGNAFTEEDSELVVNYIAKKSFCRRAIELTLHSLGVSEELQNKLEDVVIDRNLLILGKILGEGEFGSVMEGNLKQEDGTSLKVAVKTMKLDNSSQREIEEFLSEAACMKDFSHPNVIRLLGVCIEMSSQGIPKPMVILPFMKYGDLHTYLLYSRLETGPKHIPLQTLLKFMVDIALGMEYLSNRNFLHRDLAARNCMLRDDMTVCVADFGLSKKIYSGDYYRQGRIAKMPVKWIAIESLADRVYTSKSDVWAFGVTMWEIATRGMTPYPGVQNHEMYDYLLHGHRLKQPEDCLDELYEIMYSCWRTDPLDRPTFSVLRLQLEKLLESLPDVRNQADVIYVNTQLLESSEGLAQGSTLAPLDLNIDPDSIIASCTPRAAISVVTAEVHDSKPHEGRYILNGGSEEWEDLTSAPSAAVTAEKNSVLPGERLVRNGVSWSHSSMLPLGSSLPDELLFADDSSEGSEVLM
Chain of Fes (P07332 whole entry, looked up): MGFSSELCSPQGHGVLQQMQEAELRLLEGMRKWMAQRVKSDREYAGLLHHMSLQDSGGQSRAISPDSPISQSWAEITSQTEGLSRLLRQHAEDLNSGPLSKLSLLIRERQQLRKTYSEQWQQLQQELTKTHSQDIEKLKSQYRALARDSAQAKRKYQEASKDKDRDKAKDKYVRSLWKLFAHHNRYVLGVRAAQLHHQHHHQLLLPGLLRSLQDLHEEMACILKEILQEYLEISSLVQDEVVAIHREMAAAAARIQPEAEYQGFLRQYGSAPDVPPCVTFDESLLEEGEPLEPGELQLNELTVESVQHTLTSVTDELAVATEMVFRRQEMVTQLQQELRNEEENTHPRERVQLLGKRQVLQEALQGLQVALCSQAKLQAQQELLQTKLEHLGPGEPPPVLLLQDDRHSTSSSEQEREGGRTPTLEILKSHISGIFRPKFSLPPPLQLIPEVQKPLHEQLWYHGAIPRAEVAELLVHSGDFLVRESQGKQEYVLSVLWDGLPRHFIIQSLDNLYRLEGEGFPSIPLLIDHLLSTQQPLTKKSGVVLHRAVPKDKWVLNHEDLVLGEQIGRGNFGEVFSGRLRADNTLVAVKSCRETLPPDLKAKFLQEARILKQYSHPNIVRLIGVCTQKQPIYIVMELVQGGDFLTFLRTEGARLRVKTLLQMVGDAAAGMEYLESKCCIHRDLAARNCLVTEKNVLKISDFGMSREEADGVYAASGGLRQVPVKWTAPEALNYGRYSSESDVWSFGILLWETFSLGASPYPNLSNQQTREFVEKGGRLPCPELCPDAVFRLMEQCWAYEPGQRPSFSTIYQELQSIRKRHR

Sequence | SH2 binding enrichment (Grb2 SH2) | SH2 binding enrichment (c-Src SH2) | SH2 binding enrichment (SHP2-C SH2) | phosphorylation enrichment (Hck) | phosphorylation enrichment (Fyn) | phosphorylation enrichment (MERTK) | phosphorylation enrichment (EPHB2) | phosphorylation enrichment (c-Abl (mouse)) | phosphorylation enrichment (Fes) | phosphorylation enrichment (AncSZ) | phosphorylation enrichment (EPHB1) | phosphorylation enrichment (Fer (mouse)) | phosphorylation enrichment (FGFR1) | phosphorylation enrichment (FGFR3) | phosphorylation enrichment (c-Src) | phosphorylation enrichment (Jak2)
VVGMLYVGRLP [LAMA2_Y2886_G2889R] | 0.926 | 0.561 | 0.987 | 0.455 | 0.442 | 0.426 | 0.643 | 0.654 | 1.04 | 1.22 | 0.481 | 0.552 | 0.647 | 0.602 | 0.422 | 0.98
GKLIFHDLRGE [KARS1_Y145_Y145H] | 0.825 | 0.473 | 0.824 | 0.389 | 0.369 | 0.383 | 0.405 | 0.504 | 0.802 | 0.696 | 0.475 | 0.389 | 0.37 | 0.575 | 0.399 | 0.632
PVQAAYQKLVA [HBB_Y131_V134L] | 0.659 | 0.709 | 0.764 | 0.558 | 0.582 | 0.577 | 0.494 | 0.518 | 0.796 | 0.735 | 0.458 | 0.768 | 0.447 | 0.698 | 0.499 | 1.55
PVQAAYEKVVA [HBB_Y131_Q132E] | 0.885 | 2.59 | 0.886 | 0.591 | 0.88 | 0.507 | 0.345 | 0.551 | 1.02 | 0.855 | 0.744 | 0.958 | 0.786 | 0.699 | 0.415 | 0.568
MDNQEYKDAFK [BRDT_Y331_YF] | 1.07 | 0.532 | 0.721 | 0.584 | 0.493 | 0.442 | 0.602 | 1.22 | 1.39 | 1.15 | 0.715 | 0.505 | 0.504 | 0.67 | 0.526 | 1.22
AEDEDYESVGA [SYKtide_2014] | 0.852 | 0.589 | 0.975 | 0.658 | 0.586 | 0.49 | 0.672 | 0.938 | 1.44 | 1.29 | 0.815 | 0.655 | 0.62 | 0.937 | 0.616 | 1.26
HNGDRYFKGIV [DCX_Y64_R59H] | 0.821 | 0.413 | 0.762 | 0.429 | 0.515 | 0.692 | 0.344 | 0.585 | 0.716 | 0.707 | 0.449 | 0.366 | 0.286 | 0.542 | 0.585 | 0.529
DRVALYVAREG [AACS_Y117_I118V] | 0.825 | 0.425 | 0.644 | 0.68 | 0.467 | 0.291 | 0.763 | 0.589 | 1.01 | 0.8 | 0.621 | 0.498 | 0.503 | 0.705 | 0.367 | 0.823
LGQGKYSEVFE [CSNK2A1_Y50_R47Q] | 0.95 | 3.54 | 0.829 | 0.477 | 0.489 | 0.535 | 0.552 | 0.709 | 1 | 1.05 | 0.508 | 0.455 | 0.51 | 0.591 | 0.574 | 0.857
NPQKSYFIHLF [WAS_Y83_R86H_YF] | 1.19 | 0.604 | 1.08 | 0.431 | 0.396 | 0.384 | 0.512 | 0.77 | 1.32 | 0.93 | 0.644 | 0.449 | 0.475 | 0.73 | 0.399 | 1.29
INPIIYAFVGE [CCR5_Y297] | 0.776 | 0.46 | 0.6 | 6.19 | 6.13 | 7.72 | 9.51 | 10.4 | 2.02 | 1.17 | 10.7 | 6.77 | 3.48 | 2.75 | 4.84 | 1.03
AYQGKYTPSGQ [ALDOA_Y343_C339Y] | 0.939 | 0.622 | 0.639 | 0.309 | 0.262 | 0.337 | 0.299 | 0.384 | 0.441 | 0.383 | 0.388 | 0.345 | 0.316 | 0.375 | 0.35 | 0.545
AAVDTYCRHNY [HLA-DRB1_Y107] | 0.731 | 0.516 | 0.777 | 0.531 | 0.548 | 0.479 | 0.527 | 0.755 | 0.914 | 0.871 | 0.507 | 0.442 | 0.451 | 0.571 | 0.461 | 0.911
QKKEEYKMALF [F8_Y1990_R1985Q_YF] | 0.73 | 0.483 | 0.481 | 0.561 | 0.421 | 0.811 | 0.48 | 0.774 | 0.866 | 0.736 | 0.645 | 0.498 | 0.716 | 0.509 | 0.37 | 0.552
WGLCSYFETSK [MAGED2_Y448_R446C_YF] | 1.11 | 0.698 | 0.797 | 0.523 | 0.423 | 0.403 | 0.633 | 0.926 | 1.55 | 1.29 | 0.671 | 0.62 | 0.768 | 0.847 | 0.698 | 1.34
TVLWRYTGTRP [UGT1A1_Y337] | 0.707 | 0.588 | 0.724 | 0.557 | 0.411 | 0.317 | 0.582 | 0.633 | 1.01 | 1.17 | 0.432 | 0.423 | 0.495 | 0.606 | 0.344 | 0.779
SFVVRYNQPRV [GRIN2D_Y736_M733V_YF] | 1.06 | 0.972 | 0.697 | 0.515 | 0.483 | 0.366 | 0.517 | 0.663 | 1.1 | 1.01 | 0.559 | 0.49 | 0.499 | 0.608 | 0.377 | 0.794

Sequence | SH2 binding enrichment (Grb2 SH2) | SH2 binding enrichment (c-Src SH2) | SH2 binding enrichment (SHP2-C SH2) | phosphorylation enrichment (Hck) | phosphorylation enrichment (Fyn) | phosphorylation enrichment (MERTK) | phosphorylation enrichment (EPHB2) | phosphorylation enrichment (c-Abl (mouse)) | phosphorylation enrichment (Fes) | phosphorylation enrichment (AncSZ) | phosphorylation enrichment (EPHB1) | phosphorylation enrichment (Fer (mouse)) | phosphorylation enrichment (FGFR1) | phosphorylation enrichment (FGFR3) | phosphorylation enrichment (c-Src) | phosphorylation enrichment (Jak2)
ADRAAYLQNLN [MYH1_Y389_K386R] | 0.719 | 0.403 | 0.552 | 0.334 | 0.336 | 0.362 | 0.338 | 0.679 | 0.699 | 0.604 | 0.563 | 0.364 | 0.629 | 0.441 | 0.42 | 0.604
REHTVYWEPRK [MAGEA4_Y240_G241W] | 1.08 | 0.724 | 1.39 | 5.92 | 1.39 | 3.77 | 1.19 | 8.8 | 0.831 | 1.1 | 4.33 | 0.607 | 2.31 | 2.42 | 1.85 | 0.888
RLLVVYPGTQR [HBB_Y36_W38G] | 1.48 | 1.05 | 1.27 | 0.526 | 0.484 | 0.512 | 0.683 | 0.739 | 0.984 | 0.918 | 0.539 | 0.42 | 0.544 | 0.703 | 0.48 | 0.836
STEVIYLPRRK [STK11_Y36_Q37L] | 0.546 | 0.336 | 0.586 | 0.515 | 0.7 | 0.618 | 0.588 | 0.466 | 0.589 | 0.624 | 0.419 | 0.526 | 0.52 | 0.53 | 0.591 | 0.568
KAWTIYHPEDS [ZBP1_Y165_R166H] | 0.897 | 0.518 | 0.875 | 0.569 | 0.646 | 0.474 | 0.547 | 0.723 | 1.02 | 0.949 | 0.559 | 0.482 | 0.432 | 0.787 | 0.833 | 0.871
FDDIAYIRKTL [PIK3CA_Y1021] | 0.683 | 0.483 | 0.565 | 0.469 | 0.514 | 0.474 | 0.481 | 0.62 | 0.878 | 0.75 | 0.469 | 0.411 | 0.456 | 0.496 | 0.449 | 0.835
HCYNSYTYPRL [PAK7_Y316_S312C] | 0.902 | 5.34 | 0.799 | 0.74 | 0.943 | 2.84 | 0.784 | 0.932 | 1.47 | 2.4 | 0.775 | 0.684 | 1.35 | 0.884 | 0.725 | 1.33
QRIYQYIQSRF [DYRK1B_Y273] | 1.26 | 2.05 | 1.58 | 3.87 | 1.68 | 6.41 | 1.63 | 3.62 | 2.48 | 3.1 | 6.1 | 5.21 | 1.25 | 2 | 3.17 | 1.82
SLGSPYGQPPC [PDLIM4_Y137_R142C] | 0.875 | 0.562 | 0.88 | 0.576 | 0.458 | 0.39 | 0.491 | 0.817 | 0.835 | 0.659 | 0.453 | 0.37 | 0.465 | 0.588 | 0.373 | 0.568
FSQNICIQNRN [PKP2_Y631_Y631C_YF] | 0.733 | 0.665 | 0.627 | 0.392 | 0.384 | 0.388 | 0.524 | 0.719 | 0.903 | 0.766 | 0.608 | 0.535 | 0.395 | 0.584 | 0.44 | 0.841
EKGSNYCLCRT [ASIC2_Y357_D354G] | 0.947 | 0.645 | 0.806 | 0.349 | 0.504 | 0.458 | 0.45 | 0.56 | 0.607 | 0.732 | 0.47 | 0.378 | 0.469 | 0.497 | 0.393 | 0.572
SARFRYLVAEK [LDHB_Y173_M175V] | 0.811 | 0.516 | 0.615 | 0.458 | 0.415 | 0.327 | 0.486 | 0.569 | 0.635 | 0.698 | 0.351 | 0.447 | 0.424 | 0.425 | 0.449 | 0.607
AAPAAYDAADT [GAMT_Y27] | 0.839 | 1.11 | 0.654 | 0.495 | 0.522 | 0.461 | 0.5 | 0.782 | 0.97 | 1.1 | 0.479 | 0.526 | 0.529 | 0.683 | 0.513 | 0.857
LDFNEYFRNLN [HPRT1_Y198_D201N_YF] | 0.693 | 0.617 | 0.37 | 0.979 | 1 | 1.02 | 1.13 | 1.24 | 2.65 | 2.42 | 0.988 | 1.35 | 1.2 | 1.6 | 0.585 | 3.21
QGGRHYMMIVD [GAA_Y438_R437H] | 1.09 | 8.36 | 1.57 | 0.779 | 0.65 | 0.969 | 0.573 | 0.475 | 0.778 | 1.01 | 0.639 | 0.605 | 1.01 | 0.981 | 0.444 | 0.863
ISKQGYDEAGP [ACTC1_Y364_E363G] | 0.916 | 1.42 | 0.613 | 0.572 | 0.452 | 0.666 | 0.532 | 0.793 | 1.01 | 0.897 | 0.601 | 0.507 | 0.539 | 0.567 | 0.541 | 0.931
